Experimental data: US20100184658A1 (published 2010)

Columns and labels:
Assay in all cases: cell-based or functional assay
[1] = target: T1, STK4 (MST1) Serine/threonine kinase 4 (UniProt Q13043 1-487, limits assumed)
T1 sequence (looked up): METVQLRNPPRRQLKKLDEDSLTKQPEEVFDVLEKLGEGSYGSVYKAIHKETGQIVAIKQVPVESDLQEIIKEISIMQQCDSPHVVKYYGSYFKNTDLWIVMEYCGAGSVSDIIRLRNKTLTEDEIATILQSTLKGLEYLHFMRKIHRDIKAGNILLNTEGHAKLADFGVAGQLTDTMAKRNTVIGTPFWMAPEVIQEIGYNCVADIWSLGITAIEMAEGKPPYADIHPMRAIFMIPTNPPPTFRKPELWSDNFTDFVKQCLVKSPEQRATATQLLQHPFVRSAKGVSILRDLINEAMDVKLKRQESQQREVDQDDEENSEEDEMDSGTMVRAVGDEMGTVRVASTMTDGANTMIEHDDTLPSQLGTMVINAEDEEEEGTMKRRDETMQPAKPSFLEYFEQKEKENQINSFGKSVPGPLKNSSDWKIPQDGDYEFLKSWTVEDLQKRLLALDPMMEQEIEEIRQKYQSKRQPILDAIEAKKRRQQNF

IKBKB (IKK beta) IKK2 = target: T2, IKBKB (IKK beta) IKK2 (human (printed as (h)), UniProt O14920 1-756, limits assumed)
T2 sequence (looked up): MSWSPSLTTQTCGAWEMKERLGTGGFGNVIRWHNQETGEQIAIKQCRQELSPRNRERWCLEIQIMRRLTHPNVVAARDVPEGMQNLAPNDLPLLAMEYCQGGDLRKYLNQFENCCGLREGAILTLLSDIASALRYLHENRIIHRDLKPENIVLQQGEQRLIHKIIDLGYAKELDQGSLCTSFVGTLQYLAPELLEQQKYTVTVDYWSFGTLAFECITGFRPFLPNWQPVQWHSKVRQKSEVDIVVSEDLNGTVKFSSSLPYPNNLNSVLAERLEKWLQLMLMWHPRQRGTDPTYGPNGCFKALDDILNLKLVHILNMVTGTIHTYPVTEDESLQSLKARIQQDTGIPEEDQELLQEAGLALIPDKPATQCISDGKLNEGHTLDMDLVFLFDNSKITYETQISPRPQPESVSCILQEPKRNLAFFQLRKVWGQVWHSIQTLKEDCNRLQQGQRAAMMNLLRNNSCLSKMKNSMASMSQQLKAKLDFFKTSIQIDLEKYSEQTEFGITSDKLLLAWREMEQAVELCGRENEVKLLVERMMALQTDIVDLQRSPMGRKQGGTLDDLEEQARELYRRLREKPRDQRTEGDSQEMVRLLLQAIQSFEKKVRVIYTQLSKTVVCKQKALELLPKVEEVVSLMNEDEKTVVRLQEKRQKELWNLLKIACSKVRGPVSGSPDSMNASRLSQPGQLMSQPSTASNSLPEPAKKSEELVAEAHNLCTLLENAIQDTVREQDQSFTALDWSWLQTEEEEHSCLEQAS

IR (h) = IR (h) (human (printed as (h)), UniProt P06213 1005-1310, limits assumed)
Chain of IR (h) (human (printed as (h)), UniProt P06213 1005-1310, limits assumed) (P06213 1005-1310 limits assumed): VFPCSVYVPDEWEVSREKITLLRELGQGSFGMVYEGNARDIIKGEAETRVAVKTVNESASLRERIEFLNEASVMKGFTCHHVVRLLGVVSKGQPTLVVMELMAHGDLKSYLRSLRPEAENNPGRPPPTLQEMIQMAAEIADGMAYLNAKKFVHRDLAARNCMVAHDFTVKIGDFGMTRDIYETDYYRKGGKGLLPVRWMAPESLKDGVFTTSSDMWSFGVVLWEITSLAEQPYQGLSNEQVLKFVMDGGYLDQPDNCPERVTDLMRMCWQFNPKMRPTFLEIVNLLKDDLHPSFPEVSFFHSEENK

[2] = target: RPS6KB1 (p70S6K) Ribosomal protein S6 kinase, 70 kDa, polypeptide 1 (human (printed as (h)), UniProt P23443 1-421, limits assumed)
Chain of RPS6KB1 (p70S6K) Ribosomal protein S6 kinase, 70 kDa, polypeptide 1 (human (printed as (h)), UniProt P23443 1-421, limits assumed) (P23443 1-421 limits assumed): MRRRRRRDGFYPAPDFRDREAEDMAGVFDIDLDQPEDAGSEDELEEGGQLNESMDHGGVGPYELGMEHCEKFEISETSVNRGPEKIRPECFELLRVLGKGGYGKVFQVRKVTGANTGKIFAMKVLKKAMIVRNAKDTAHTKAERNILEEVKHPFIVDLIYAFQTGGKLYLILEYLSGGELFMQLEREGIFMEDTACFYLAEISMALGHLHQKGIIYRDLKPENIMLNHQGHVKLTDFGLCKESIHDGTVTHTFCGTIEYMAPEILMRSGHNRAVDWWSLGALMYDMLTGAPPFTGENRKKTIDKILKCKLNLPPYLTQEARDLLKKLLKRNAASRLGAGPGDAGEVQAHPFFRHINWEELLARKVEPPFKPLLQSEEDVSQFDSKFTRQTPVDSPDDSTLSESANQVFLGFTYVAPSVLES

GSK3β(h) = GSK3β(h) (human (printed as (h)), UniProt P49841 1-420, limits assumed)
Chain of GSK3β(h) (human (printed as (h)), UniProt P49841 1-420, limits assumed) (P49841 whole entry): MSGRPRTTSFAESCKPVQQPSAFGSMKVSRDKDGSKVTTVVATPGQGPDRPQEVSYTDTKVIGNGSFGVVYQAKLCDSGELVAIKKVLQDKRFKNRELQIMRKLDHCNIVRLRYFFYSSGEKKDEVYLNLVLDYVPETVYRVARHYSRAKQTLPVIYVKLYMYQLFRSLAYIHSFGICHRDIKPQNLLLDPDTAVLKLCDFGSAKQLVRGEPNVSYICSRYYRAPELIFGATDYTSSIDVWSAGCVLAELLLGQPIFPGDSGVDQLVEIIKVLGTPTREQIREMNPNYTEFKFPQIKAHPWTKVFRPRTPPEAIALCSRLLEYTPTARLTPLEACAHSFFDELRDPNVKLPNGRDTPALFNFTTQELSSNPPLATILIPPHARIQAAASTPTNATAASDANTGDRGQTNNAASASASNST

PRKCB2 (PKC beta II) = PRKCB2 (PKC beta II) (human (printed as (h)), UniProt P05771-2 1-673)
Chain of PRKCB2 (PKC beta II) (human (printed as (h)), UniProt P05771-2 1-673) (P05771 other isoform, or with tags, fused parts or gaps limits assumed): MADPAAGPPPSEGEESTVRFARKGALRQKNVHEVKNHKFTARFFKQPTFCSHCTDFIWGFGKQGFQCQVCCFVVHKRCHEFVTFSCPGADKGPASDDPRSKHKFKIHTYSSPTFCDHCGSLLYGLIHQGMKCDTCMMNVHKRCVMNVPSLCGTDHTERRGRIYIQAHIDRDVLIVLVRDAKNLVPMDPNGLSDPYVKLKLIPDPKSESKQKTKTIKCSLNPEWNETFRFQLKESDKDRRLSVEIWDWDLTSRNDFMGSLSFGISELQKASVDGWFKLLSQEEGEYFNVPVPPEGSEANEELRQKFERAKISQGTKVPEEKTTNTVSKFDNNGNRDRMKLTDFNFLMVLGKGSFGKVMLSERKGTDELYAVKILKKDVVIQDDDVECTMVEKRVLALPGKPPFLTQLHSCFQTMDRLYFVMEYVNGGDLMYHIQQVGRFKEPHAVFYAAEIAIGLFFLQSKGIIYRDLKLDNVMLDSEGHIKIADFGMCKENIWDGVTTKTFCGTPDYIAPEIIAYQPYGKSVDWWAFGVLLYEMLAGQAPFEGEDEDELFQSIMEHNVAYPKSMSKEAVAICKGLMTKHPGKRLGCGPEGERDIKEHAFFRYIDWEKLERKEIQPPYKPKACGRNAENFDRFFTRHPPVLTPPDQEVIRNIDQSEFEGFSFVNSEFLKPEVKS

[3] = target: T3, SGK (SGK1) Serum/glucocorticoid regulated kinase (human (printed as (h)), UniProt O00141 60-431, limits assumed)
T3 sequence (looked up): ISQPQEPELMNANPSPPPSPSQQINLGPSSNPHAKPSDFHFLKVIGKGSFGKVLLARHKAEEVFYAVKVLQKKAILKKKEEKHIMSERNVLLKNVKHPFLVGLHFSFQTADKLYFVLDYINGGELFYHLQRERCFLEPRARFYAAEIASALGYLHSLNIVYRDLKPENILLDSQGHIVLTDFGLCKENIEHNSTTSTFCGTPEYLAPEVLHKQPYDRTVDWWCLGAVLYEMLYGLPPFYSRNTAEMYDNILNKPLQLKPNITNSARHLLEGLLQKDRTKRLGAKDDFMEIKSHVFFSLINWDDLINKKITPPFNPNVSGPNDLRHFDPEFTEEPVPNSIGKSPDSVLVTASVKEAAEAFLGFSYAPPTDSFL

AKT2 (PKB beta) = AKT2 (PKB beta) (human (printed as (h)), UniProt P31751 1-481, limits assumed)
Chain of AKT2 (PKB beta) (human (printed as (h)), UniProt P31751 1-481, limits assumed) (P31751 whole entry): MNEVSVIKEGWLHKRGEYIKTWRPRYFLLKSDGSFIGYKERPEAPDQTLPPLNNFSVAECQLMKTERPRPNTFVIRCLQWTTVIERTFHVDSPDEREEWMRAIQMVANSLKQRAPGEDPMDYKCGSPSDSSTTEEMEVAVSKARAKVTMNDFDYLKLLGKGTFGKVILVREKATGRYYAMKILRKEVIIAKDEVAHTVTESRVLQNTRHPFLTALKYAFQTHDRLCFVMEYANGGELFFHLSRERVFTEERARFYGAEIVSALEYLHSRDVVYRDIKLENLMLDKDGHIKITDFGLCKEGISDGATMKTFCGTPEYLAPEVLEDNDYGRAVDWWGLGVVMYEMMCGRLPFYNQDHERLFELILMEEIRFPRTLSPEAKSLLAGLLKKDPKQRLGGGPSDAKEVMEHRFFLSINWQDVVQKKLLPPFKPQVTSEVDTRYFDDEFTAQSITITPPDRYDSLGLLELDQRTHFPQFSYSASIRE

PDK1 = target: T4, PDK1 (human (printed as (h)), UniProt O15530 1-556, limits assumed)
T4 sequence (looked up): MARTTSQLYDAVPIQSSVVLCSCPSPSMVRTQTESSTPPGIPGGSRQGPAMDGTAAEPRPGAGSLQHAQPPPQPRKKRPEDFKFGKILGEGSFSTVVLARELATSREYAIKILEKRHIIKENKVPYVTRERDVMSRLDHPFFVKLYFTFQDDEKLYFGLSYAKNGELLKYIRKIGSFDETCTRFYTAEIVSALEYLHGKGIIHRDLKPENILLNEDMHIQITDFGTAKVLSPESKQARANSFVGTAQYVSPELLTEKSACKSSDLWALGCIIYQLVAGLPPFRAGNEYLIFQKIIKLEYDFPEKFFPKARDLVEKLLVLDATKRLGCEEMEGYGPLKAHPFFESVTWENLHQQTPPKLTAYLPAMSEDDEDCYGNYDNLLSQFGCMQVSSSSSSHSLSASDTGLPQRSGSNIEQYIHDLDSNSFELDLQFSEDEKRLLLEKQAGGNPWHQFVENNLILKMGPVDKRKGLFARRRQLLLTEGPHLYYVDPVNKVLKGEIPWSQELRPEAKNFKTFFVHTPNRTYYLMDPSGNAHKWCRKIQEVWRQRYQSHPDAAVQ

MAPK1(h) = MAPK1(h) (human (printed as (h)), UniProt P28482 1-360, limits assumed)
Chain of MAPK1(h) (human (printed as (h)), UniProt P28482 1-360, limits assumed) (P28482 whole entry): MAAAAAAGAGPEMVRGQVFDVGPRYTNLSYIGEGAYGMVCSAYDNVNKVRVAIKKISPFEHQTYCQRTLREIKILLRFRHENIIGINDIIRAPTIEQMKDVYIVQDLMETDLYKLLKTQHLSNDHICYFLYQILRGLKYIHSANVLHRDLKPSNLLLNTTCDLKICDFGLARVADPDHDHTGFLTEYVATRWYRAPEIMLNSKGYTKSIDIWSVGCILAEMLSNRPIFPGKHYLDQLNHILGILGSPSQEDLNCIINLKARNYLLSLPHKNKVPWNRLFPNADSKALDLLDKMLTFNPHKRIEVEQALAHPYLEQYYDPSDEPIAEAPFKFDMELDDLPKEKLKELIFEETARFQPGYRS

SGRPPMIVWFNRPFLIAVSHTHGQTILFMAKVINPVGA [D3 peptide]
% Inhibition mean [1]: 99%
D3 at 0.1 µM % activity (IKBKB (IKK beta) IKK2): 103%
D3 at 1 µm % activity (IKBKB (IKK beta) IKK2): 71%
D3 at 0.1 µM % activity (IR (h)): 96%
D3 at 1 µm % activity (IR (h)): 103%
D3 at 0.1 µM % activity [2]: 73%
D3 at 1 µm % activity [2]: 22%
IC50 [2]: 373 nM
D3 at 0.1 µM % activity (GSK3β(h)): 101%
D3 at 1 µm % activity (GSK3β(h)): 100%
D3 at 0.1 µM % activity (PRKCB2 (PKC beta II)): 101%
D3 at 1 µm % activity (PRKCB2 (PKC beta II)): 103%
D3 at 0.1 µM % activity [3]: 74%
D3 at 1 µm % activity [3]: 5%
IC50 [3]: 325 nM
D3 at 0.1 µM % activity (AKT2 (PKB beta)): 63%
D3 at 1 µm % activity (AKT2 (PKB beta)): 12%
IC50 (AKT2 (PKB beta)): 448 nM
D3 at 0.1 µM % activity (PDK1): 98%
D3 at 1 µm % activity (PDK1): 108%
D3 at 0.1 µM % activity (MAPK1(h)): 86%
D3 at 1 µm % activity (MAPK1(h)): 92%
